Data reported in article PMC6370916.
Positions count from the first letter of the chain named. In names and notes the source's numbering stands.

B1: human Neuropilin 2, wild type, O60462 A506V (protein)
chain: RGQPDPPCGGRLNSKDAGYITSPGYPQDYPSHQNCEWIVYAPEPNQKIVLNFNPHFEIEKHDCKYDFIEIRDGDSESADLLGKHCGNIAPPTIISSGSMLYIKFTSDYARQGAGFSLRYEIFKTGSEDCSKNFTSPNGTIESPGFPEKYPHNLDCTFTILAKPKMEIILQFLIFDLEHDPLQVGEGDCKYDWLDIWDGIPHVGPLIGKYCGTKTPSELRSSTGILSLTFHTDMAVAKDGFSARYYLVHQEPLENFQCNVPLGMESGRIANEQISASSTYSDGRWTPQQSRLHGDDNGWTPNLDSNKEYLQVDLRFLTMLTAIATQGAISRETQNGYYVKSYKLEVSTNGEDWMVYRHGKNHKVFQANNDATEVVLNKLHAPLLTRFVRIRPQTWHSGIALRLELFGCRVTDAPCSNMLGMLSGLIADSQISASSTQEYLWSPSAARLVSSRSGWFPRIPQAQPGEEWLQVDLGTPKTVKGVIIQGVRGGDSITAVEARAFVRKFKVSYSLNGKDWEYIQDPRTQQPKLFEGNMHYDTPDIRRFDPIPAQYVRVYPERWSPAGIGMRLEVLGCDWTDSKPTVETLGPTVKSEETTTPYPTEEEATECGENCSFEDDKDLQLPSGFNCNFDFLEEPCGWMYDHAKWLRTTWASSSSPNDRTFPDDRNFLRLQSDSQREGQYARLISPPVHLPRSPVCMEFQYQATGGRGVALQVVREASQESKLLWVIREDQGGEWKHGRIILPSYDMEYQIVFEGVIGKGRSGEIAIDDIRISTDVPLENCMEPISAFAGENFKVDIPEIHEREGYEDEIDDEYEVDWSNSSSATSGSGAPSTDKEKSWLYTLDPILITIIAMSSLGVLLGATCAGLLLYCTCSYSGLSSRSCTTLENYNFELYDGLKHKVKMNHQKCCSEA
B2: human Neuropilin 2, wild type, O60462 V573L (protein)
chain: B1 chain with V486A, V553L

Target: T1, recombinant human SEMA3C Fc chimera, Q99985
T1 chain: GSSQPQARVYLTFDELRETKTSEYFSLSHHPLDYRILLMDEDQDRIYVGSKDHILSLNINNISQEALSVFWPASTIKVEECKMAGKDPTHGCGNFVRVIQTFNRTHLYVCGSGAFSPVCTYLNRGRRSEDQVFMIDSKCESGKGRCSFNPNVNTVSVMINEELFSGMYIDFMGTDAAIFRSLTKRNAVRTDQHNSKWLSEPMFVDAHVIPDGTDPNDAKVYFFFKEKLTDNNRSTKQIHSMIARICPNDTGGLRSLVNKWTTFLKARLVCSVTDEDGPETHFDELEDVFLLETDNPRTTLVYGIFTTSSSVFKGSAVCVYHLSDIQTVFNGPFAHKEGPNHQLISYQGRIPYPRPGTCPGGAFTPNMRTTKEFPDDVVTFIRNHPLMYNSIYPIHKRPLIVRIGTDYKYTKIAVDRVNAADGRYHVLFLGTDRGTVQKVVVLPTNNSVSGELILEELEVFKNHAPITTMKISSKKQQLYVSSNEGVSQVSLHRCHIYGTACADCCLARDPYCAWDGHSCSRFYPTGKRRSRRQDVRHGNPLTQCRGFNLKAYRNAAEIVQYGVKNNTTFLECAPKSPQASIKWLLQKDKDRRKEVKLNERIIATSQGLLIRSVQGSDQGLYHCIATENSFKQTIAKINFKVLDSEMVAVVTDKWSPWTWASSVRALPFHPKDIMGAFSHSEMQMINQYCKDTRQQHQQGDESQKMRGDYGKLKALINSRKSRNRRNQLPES
Assay: Saturation receptor-ligand binding assay
Settings: chain shown with the change, SEMA3C 0-10 nM, read-out O.D. 450 nm

[1] = NRP2 co-expressed with WT PLXNA1, parent: 0.63 nM
[2] = NRP2 co-expressed with WT PLXNA1, parent: 0.65
[3] = NRP2 co-expressed with WT PLXNA2, parent: 0.89 nM
[4] = NRP2 co-expressed with WT PLXNA2, parent: 0.60
[5] = NRP2 co-expressed with WT PLXNA3, parent: 0.93 nM
[6] = NRP2 co-expressed with WT PLXNA3, parent: 0.54
[7] = NRP2 co-expressed with WT PLXNA4, parent: 1.03 nM
[8] = NRP2 co-expressed with WT PLXNA4, parent: 0.65
[9] = cells expressing NRP2 alone (no PLXNA co-expressed), parent: 0.81 nM
[10] = cells expressing NRP2 alone (no PLXNA co-expressed), parent: 0.89

Row | Kd [1] | other: Bmax [2] | Kd [3] | other: Bmax [4] | Kd [5] | other: Bmax [6] | Kd [7] | other: Bmax [8] | Kd [9] | other: Bmax [10] | Binder
1 | 0.67 nM | 0.55 O.D. 450 nm | 1 nM | 0.52 O.D. 450 nm | 1.12 nM | 0.42 O.D. 450 nm | 1.25 nM | 0.55 O.D. 450 nm | 0.73 nM | 0.84 O.D. 450 nm | B1
2 | 0.68 nM | 0.66 O.D. 450 nm | 1.01 nM | 0.67 O.D. 450 nm | 1.18 nM | 0.52 O.D. 450 nm | 1.07 nM | 0.59 O.D. 450 nm | 0.83 nM | 0.93 O.D. 450 nm | B2
